Laboratory results taken from EP2878677A1, “Activators of protein phosphatase 5” (Deutsches Zentrum für Neurodegenerative Erkrankungen e.V. …, priority 2013, dated 2015).

Target: PPH-5 (C. elegans protein phosphatase 5) (C. elegans)
Assay: competition in sedimentation velocity AUC; 60 uM peptide, 300 nM YFP-Hsp90, 3 uM PPH-5; the peptide competes with YFP-Hsp90

B1: C-terminal Hsp90/DAF-21 peptide (…) (peptide)
peptide: AEEDASRMEEVD
sedimentation coefficient (s20,w) of the YFP-Hsp90/PPH-5 complex in presence of the peptide: 7.6 S
